What all share (assay): SPR
Test [1] concerns the target human FcγRI, HIS-tagged (human) (UniProt P12314).
For test [2], the target named is human FcγRIIA 167R, HIS-tagged (human) (UniProt P12318).
The target of test [3] is human FcγRIIIA 176F, HIS-tagged (human) (UniProt P08637).
In test [4] the target is human FcγRIIIA 176V, HIS-tagged (human) (UniProt P08637).
Test [5] addresses human FcγRIIB, HIS-tagged (human) (UniProt P31994).
The target in test [6] is human FcγRIIA 167H, HIS-tagged (human) (UniProt P12318).

Chain of UniProt P31994 (P31994 43-310): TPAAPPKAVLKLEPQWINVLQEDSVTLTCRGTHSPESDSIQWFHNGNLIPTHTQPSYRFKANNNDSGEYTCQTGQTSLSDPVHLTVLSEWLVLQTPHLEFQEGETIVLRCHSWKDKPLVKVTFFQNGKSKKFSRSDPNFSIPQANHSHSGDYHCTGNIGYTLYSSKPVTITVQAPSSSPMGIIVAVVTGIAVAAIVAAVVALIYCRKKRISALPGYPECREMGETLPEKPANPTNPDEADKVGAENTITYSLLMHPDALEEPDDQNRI
Chain of UniProt P12314 (P12314 16-374): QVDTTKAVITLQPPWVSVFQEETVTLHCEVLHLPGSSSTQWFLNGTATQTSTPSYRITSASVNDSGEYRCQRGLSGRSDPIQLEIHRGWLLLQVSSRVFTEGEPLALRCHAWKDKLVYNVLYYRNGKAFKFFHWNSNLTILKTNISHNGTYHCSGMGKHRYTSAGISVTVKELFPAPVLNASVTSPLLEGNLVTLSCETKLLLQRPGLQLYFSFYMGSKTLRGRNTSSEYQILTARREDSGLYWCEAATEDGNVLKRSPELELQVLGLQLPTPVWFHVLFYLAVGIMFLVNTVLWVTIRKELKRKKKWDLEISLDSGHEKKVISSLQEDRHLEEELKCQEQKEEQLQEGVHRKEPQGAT

On to “TA99 hIgG1 N297D/S298A/K326I/A327Y/L328G, aglycosylated (antibody)”, for which the Kd in test [1] was 29 nM; in test [2] it was above 10000 nM; in test [3] it was 2230 nM; in test [4], 1050 nM.
The like results for “TA99 hIgG1 N297D/S298T/K326I/A327Y/L328G, aglycosylated (antibody)” were, in that order, 5 nM, 2730 nM, 1810 nM and 1040 nM.
Regarding “TA99 hIgG1 N297H/S298A/K326I/A327Y/L328G, aglycosylated (antibody)”, the Kd in test [3] worked out at 1680 nM; in test [4], 1790 nM.
In turn, “TA99 hIgG1 N297Q, aglycosylated (antibody)” showed a dissociation constant Kd in test [1] of 295 nM.
Regarding “TA99 hIgG1 S298G/T299A, aglycosylated (antibody)”, the Kd in test [5] was 6450 nM; in test [6], 996 nM; in test [2], above 10000 nM.
In the case of “TA99 hIgG1 T299A/K326I/A327Y/L328G, aglycosylated (antibody)”, the Kd in test [1] was 243 nM; in test [5], 2100 nM; in test [6], 605 nM; in test [2], 2490 nM; in test [3], 1240 nM; in test [4], 452 nM.
On to “TA99 hIgG1 wild-type, glycosylated (from UniProt P01857 1-399) (antibody)”, for which the Kd in test [5] amounted to 3520 nM; in test [6], 1150 nM; in test [2], 8020 nM; in test [3], 4540 nM; in test [4], 1700 nM.
Turning to “human IgG1 used as a control on Biacore (antibody)”, the Kd in test [5] came to 6500 nM; in test [6] it was 1100 nM; in test [4], 348 nM.

For orientation: Kd means a measure of binding affinity in units of concentration. A higher Kd goes with weaker binding.

(Values after article PMC5584586.)
